Target: the molecule itself
Test: mass photometry; Refeyn One MP; LARGE1 samples diluted in TBS to approximately 30 nM (2.5 ug/ml), room temperature, 60 second recordings; monomer to dimer

Row | Protein | stoichiometry N
1 | LARGE1^ecto (soluble secreted ectodomain of human LARGE1 with its coiled-coil domain, residues 29-756) (domain or fragment, UniProt O95461 29-756, looked up, Cloned into a modified pHLsec plasmid (BglII/NotI); also called Like-acetylglucosaminyltransferase 1; LARGE1-His WT) LFSGSFEDGKPVSLSPLESQAHSPRYTASSQRERESLEVRMREVEEENRALRRQLSLAQGRAPSHRRGNHSKTYSMEEGTGDSENLRAGIVAGNSSECGQQPVVEKCETIHVAIVCAGYNASRDVVTLVKSVLFHRRNPLHFHLIADSIAEQILATLFQTWMVPAVRVDFYNADELKSEVSWIPNKHYSGIYGLMKLVLTKTLPANLERVIVLDTDITFATDIAELWAVFHKFKGQQVLGLVENQSDWYLGNLWKNHRPWPALGRGYNTGVILLLLDKLRKMKWEQMWRLTAERELMGMLSTSLADQDIFNAVIKQNPFLVYQLPCFWNVQLSDHTRSEQCYRDVSDLKVIHWNSPKKLRVKNKHVEFFRNLYLTFLEYDGNLLRRELFGCPSEADVNSENLQKQLSELDEDDLCYEFRRERFTVHRTHLYFLHYEYEPAADSTDVTLVAQLSMDRLQMLEAICKHWEGPISLALYLSDAEAQQFLRYAQGSEVLMSRHNVGYHIVYKEGQFYPVNLLRNVAMKHISTPYMFLSDIDFLPMYGLYEYLRKSVIQLDLANTKKAMIVPAFETLRYRLSFPKSKAELLSMLDMGTLFTFRYHVWTKGHAPTNFAKWRTATTPYRVEWEADFEPYVVVRRDCPEYDRRFVGFGWNKVAHIMELDVQEYEFIVLPNAYMIHMPHAPSFDITKFRSNKQYRICLKTLKEEFQQDMSRRYGFAALKYLTAENNS | 2
2 | LARGE1^ΔCC (soluble secreted ectodomain of human LARGE1 without its coiled-coil domain, residues 92-756) (domain or fragment, UniProt O95461 92-756, looked up, residues 134 to 752 are modelled in the crystal structure; Cloned into a modified pHLsec plasmid; also called LARGE1 without CC; LARGE1- CC) SHRRGNHSKTYSMEEGTGDSENLRAGIVAGNSSECGQQPVVEKCETIHVAIVCAGYNASRDVVTLVKSVLFHRRNPLHFHLIADSIAEQILATLFQTWMVPAVRVDFYNADELKSEVSWIPNKHYSGIYGLMKLVLTKTLPANLERVIVLDTDITFATDIAELWAVFHKFKGQQVLGLVENQSDWYLGNLWKNHRPWPALGRGYNTGVILLLLDKLRKMKWEQMWRLTAERELMGMLSTSLADQDIFNAVIKQNPFLVYQLPCFWNVQLSDHTRSEQCYRDVSDLKVIHWNSPKKLRVKNKHVEFFRNLYLTFLEYDGNLLRRELFGCPSEADVNSENLQKQLSELDEDDLCYEFRRERFTVHRTHLYFLHYEYEPAADSTDVTLVAQLSMDRLQMLEAICKHWEGPISLALYLSDAEAQQFLRYAQGSEVLMSRHNVGYHIVYKEGQFYPVNLLRNVAMKHISTPYMFLSDIDFLPMYGLYEYLRKSVIQLDLANTKKAMIVPAFETLRYRLSFPKSKAELLSMLDMGTLFTFRYHVWTKGHAPTNFAKWRTATTPYRVEWEADFEPYVVVRRDCPEYDRRFVGFGWNKVAHIMELDVQEYEFIVLPNAYMIHMPHAPSFDITKFRSNKQYRICLKTLKEEFQQDMSRRYGFAALKYLTAENNS | 2

Source: PMC9746966, “Structural basis for matriglycan synthesis by the LARGE1 dual glycosyltransferase” (PLOS ONE, 2022)
